# B1: OVA (protein, UniProt P01012 2-386, looked up)
# Ovalbumin: GSIGAASMEFCFDVFKELKVHHANENIFYCPIAIMSALAMVYLGAKDSTRTQINKVVRFDKLPGFGDSIEAQCGTSVNVHSSLRDILNQITKPNDVYSFSLASRLYAEERYPILPEYLQCVKELYRGGLEPINFQTAADQARELINSWVESQTNGIIRNVLQPSSVDSQTAMVLVNAIVFKGLWEKAFKDEDTQAMPFRVTEQESKPVQMMYQIGLFRVASMASEKMKILELPFASGTMSMLVLLPDEVSGLEQLESIINFEKLTEWTSSNVMEERKIKVYLPRMKMEEKYNLTSVLMAMGITDVFSSSANLSGISSAESLKISQAVHAAHAEINEAGREVVGSAEAGVDAASVSEEFRADHPFLFCIKHIATNAVLFFGRCVSP
# System: small intestinal immune cells
# Experiment: Droplet-based scRNA-seq of small intestinal immune cells (LP and PP), OVA vs PBS, clustering and differential expression
# Assay type: in vivo, mouse
# Settings: for percentage of expressing cells in OVA-treated group / LN (average fold change): cluster ID 12, LP
# Excerpt: To comprehensively characterize small intestinal immune cells, Applicants generated scRNA-Seq profiles for 58,067 immune cells collected from lamina propria (LP) and Peyer's patch (PP) regions at steady state and after induction of a type 2 inflammatory reaction to ovalbumin (OVA) (Brandt et al., 2003) (FIGS. 1A and 8A). To ensure sufficient representation of rare cells, Applicants combined a normalization strategy—removing by flow sorting either a portion of IgD+ naïve B cells, which are the most abundant cell type in PPs, or all CD19+ and CD3+ T cells (FIG. 8B, Methods)—with profiling of a sufficiently large number of cells number (P>0.99 to recover at least 15 cells from each cluster, Methods) by massively parallel scRNA-seq (Haber et al., 2017) (Methods). Applicants obtained 36,797 and 21,270 high quality cells passing initial filtering (Methods) from PP and LP regions, respectively.
# Overall, Applicants annotated 27 cell subsets across the two compartments, spanning T cells, B cells, ILCs, dendritic cells (DCs), myeloid cells and stromal cells, in frequencies ranging from 0.07% to 14%. Briefly, Applicants first partitioned the cells from the PP regions by unsupervised clustering (Methods) into 46 clusters, retained the 97% of cells that were robustly assigned cell identities in each cluster (Methods), assigned the cells from the LP regions to the 46 clusters using a classifier (Methods), and visualized the data with scvis (Ding et al., 2018), a deep generative model-based method (FIGS. 1B and 8C, Methods). Next, Applicants identified genes that were differentially expressed between the cells in each cluster and the remaining cells (Table 1, Methods), as well as between pairs of clusters (Table 2), to elucidate identities of similar cell types/states. Applicants excluded from downstream analysis clusters mostly consisting of contaminants from epithelium, likely doublets, or cells with a small number of Unique Molecular Identifiers (UMIs) (FIGS. 1C and 8D), or lacking distinct markers (Methods). Altogether, Applicants retained 27 clusters spanning 85% of the cells and each associated with distinct marker genes (FIG. 8E, Methods).
# To induce allergic reaction to OVA, 6 to 7 weeks old mice were sensitized twice, two weeks apart, with 50 μg of OVA plus 1 mg of aluminum potassium sulfate adjuvant via intraperitoneal injection. Two weeks later, mice were orally administered with 50 mg of OVA on every other day for a total of five times. 1 μg of α-CGRP peptide was administered simultaneously when indicated. Mice were deprived of food for 3-4 hours in cages with wood chip bedding for limiting antigen degradation in the stomach before each intragastric challenge.
# Isolation of cells from Peyer's patches (PPs). Peyer's patches (PPs) were carefully dissected from the small intestine under a stereo microscope using a fine scissor, pierced once with a fine forcep. Tissues were digested in freshly made digestion buffer (RPMI-1640 containing 100 μg/ml Liberase™ and 50 μg/ml DNase I at 37° C. on a roto-mixer. After 15 min, tissues were very gently mixed using a 1 ml pipette. The supernatant was collected and added to ice-cold MACS buffer (pH 7.4; PBS plus 2% FCS and 2 mM EDTA). Pre-warmed (37° C.) fresh digestion buffer was added to the remaining tissues. After rotation at 37° C. for 15 min, the mixture was vigorously mixed using a 1 ml pipette for 1 min. Supernatants from the two steps were combined and passed through 70 μm filters and stained for FACS (below).
# Isolation of cells from the lamina propria (LP). The small intestines were opened longitudinally and washed in ice-cold PBS. For scRNA-seq, roughly 0.5 cm of fragments from each of the distal, middle and proximal regions without visible PPs were collected. Epithelial cells were dissociated by tissue rotation in pre-warmed (37° C.) PBS containing 10 mM EDTA at 37° C. for 15 min, followed by additional incubation on ice for 15 min. Tissues were then shaken vigorously. […]
molecule,measurement,setting,value
B1,Rilpl2: LN (average fold change),"cluster ID 6, PP, OVA vs PBS",−0.158
same,Rnase6: LN (average fold change),"cluster ID 6, PP, OVA vs PBS",0.160
same,Rnf19b: LN (average fold change),"cluster ID 6, PP, OVA vs PBS",−0.314
same,Rpn2: LN (average fold change),"cluster ID 6, PP, OVA vs PBS",0.272
same,Runx3: LN (average fold change),"cluster ID 6, PP, OVA vs PBS",−0.200
same,S1pr4: LN (average fold change),"cluster ID 6, PP, OVA vs PBS",0.331
same,Sell: LN (average fold change),"cluster ID 6, PP, OVA vs PBS",0.172
same,Selplg: LN (average fold change),"cluster ID 6, PP, OVA vs PBS",0.183
same,Sf3b1: LN (average fold change),"cluster ID 6, PP, OVA vs PBS",0.237
same,Siah2: LN (average fold change),"cluster ID 6, PP, OVA vs PBS",−0.303
same,Skil: LN (average fold change),"cluster ID 6, PP, OVA vs PBS",−0.246
same,Sla2: LN (average fold change),"cluster ID 6, PP, OVA vs PBS",0.243
same,Smc6: LN (average fold change),"cluster ID 6, PP, OVA vs PBS",−0.180
same,Socs3: LN (average fold change),"cluster ID 6, PP, OVA vs PBS",0.385
same,Spsb2: LN (average fold change),"cluster ID 6, PP, OVA vs PBS",−0.508
same,Tgif1: LN (average fold change),"cluster ID 6, PP, OVA vs PBS",−0.548
same,Tnfaip8l2: LN (average fold change),"cluster ID 6, PP, OVA vs PBS",0.307
same,Traf4: LN (average fold change),"cluster ID 6, PP, OVA vs PBS",−0.199
same,Trim25: LN (average fold change),"cluster ID 6, PP, OVA vs PBS",−0.239
same,VgIl4: LN (average fold change),"cluster ID 6, PP, OVA vs PBS",−0.419
same,Vps37b: LN (average fold change),"cluster ID 6, PP, OVA vs PBS",−0.292
same,Wnk1: LN (average fold change),"cluster ID 6, PP, OVA vs PBS",−0.262
same,Zc3h12a: LN (average fold change),"cluster ID 6, PP, OVA vs PBS",−0.495
same,Zfand5: LN (average fold change),"cluster ID 6, PP, OVA vs PBS",−0.220
same,Zfp36l2: LN (average fold change),"cluster ID 6, PP, OVA vs PBS",0.365
same,percentage of expressing cells in OVA-treated group,gene Abhd17c,0.52
same,LN (average fold change),"gene Abhd17c, OVA vs PBS",0.599
same,percentage of expressing cells in OVA-treated group,gene Arf6,0.429
same,LN (average fold change),"gene Arf6, OVA vs PBS",0.610
same,percentage of expressing cells in OVA-treated group,gene Arl4a,0.256
same,LN (average fold change),"gene Arl4a, OVA vs PBS",0.781
same,percentage of expressing cells in OVA-treated group,gene Arl5c,0.04
same,LN (average fold change),"gene Arl5c, OVA vs PBS",−1.873
same,percentage of expressing cells in OVA-treated group,gene Arpc2,0.769
same,LN (average fold change),"gene Arpc2, OVA vs PBS",0.318
same,percentage of expressing cells in OVA-treated group,gene BC031181,0.365
same,LN (average fold change),"gene BC031181, OVA vs PBS",−0.512
same,percentage of expressing cells in OVA-treated group,gene Cbarp,0.193
same,LN (average fold change),"gene Cbarp, OVA vs PBS",0.886
same,percentage of expressing cells in OVA-treated group,gene Ccl1,0.203
same,LN (average fold change),"gene Ccl1, OVA vs PBS",1.335
same,percentage of expressing cells in OVA-treated group,gene Ccrl2,0.192
same,LN (average fold change),"gene Ccrl2, OVA vs PBS",−0.742
same,percentage of expressing cells in OVA-treated group,gene Cd52,0.581
same,LN (average fold change),"gene Cd52, OVA vs PBS",0.644
same,percentage of expressing cells in OVA-treated group,gene Cited2,0.176
same,LN (average fold change),"gene Cited2, OVA vs PBS",−0.724
same,percentage of expressing cells in OVA-treated group,gene Cntnap2,0.074
same,LN (average fold change),"gene Cntnap2, OVA vs PBS",−1.008
same,percentage of expressing cells in OVA-treated group,gene Coq10b,0.332
same,LN (average fold change),"gene Coq10b, OVA vs PBS",−0.690
same,percentage of expressing cells in OVA-treated group,gene Cox8a,0.798
same,LN (average fold change),"gene Cox8a, OVA vs PBS",0.285
same,percentage of expressing cells in OVA-treated group,gene Cwc25,0.061
same,LN (average fold change),"gene Cwc25, OVA vs PBS",−1.439
same,percentage of expressing cells in OVA-treated group,gene Cycs,0.531
same,LN (average fold change),"gene Cycs, OVA vs PBS",0.561
same,percentage of expressing cells in OVA-treated group,gene Ddx5,0.886
same,LN (average fold change),"gene Ddx5, OVA vs PBS",−0.276
same,percentage of expressing cells in OVA-treated group,gene Dtx1,0.05
same,LN (average fold change),"gene Dtx1, OVA vs PBS",−1.600
same,percentage of expressing cells in OVA-treated group,gene Eef1a1,0.997
same,LN (average fold change),"gene Eef1a1, OVA vs PBS",0.236
same,percentage of expressing cells in OVA-treated group,gene Eef1b2,0.709
same,LN (average fold change),"gene Eef1b2, OVA vs PBS",0.395
same,percentage of expressing cells in OVA-treated group,gene Eef2,0.927
same,LN (average fold change),"gene Eef2, OVA vs PBS",0.240
same,percentage of expressing cells in OVA-treated group,gene Eif1,0.996
same,LN (average fold change),"gene Eif1, OVA vs PBS",0.152
same,percentage of expressing cells in OVA-treated group,gene Eif3e,0.67
same,LN (average fold change),"gene Eif3e, OVA vs PBS",0.416
same,percentage of expressing cells in OVA-treated group,gene Eif3h,0.686
same,LN (average fold change),"gene Eif3h, OVA vs PBS",0.298
same,percentage of expressing cells in OVA-treated group,gene Emd,0.235
same,LN (average fold change),"gene Emd, OVA vs PBS",−0.729

# Source: patent US20220143148A1, “COMPOSITIONS AND METHODS FOR MODULATING CGRP SIGNALING TO REGULATE INTESTINAL INNATE LYMPHOID CELLS” (The Broad Institute, Inc., priority 2019, published 2022)
